Measurements reported in article PMC12376620, “A Novel OsMPK6‐OsMADS47‐PPKL1/3 Module Controls Grain Shape and Yield in Rice”.

B1: GS3-P5 (dsDNA)
DNA 1: CTTTTCTAAACGATATTCTTCATGAACCAAAGGAGGGAAGCTCATTCCGAAAATTTTTCC
DNA 2: GGAAAAATTTTCGGAATGAGCTTCCCTCCTTTGGTTCATGAAGAATATCGTTTAGAAAAG
B2: GS3-P1 (dsDNA)
DNA 1: GCTGCACAACCCGCGATGCCGTCGGCCGGATTTGGGAGGTGGAGCGTCGCCGCCCTCC
DNA 2: GGAGGGCGGCGACGCTCCACCTCCCAAATCCGGCCGACGGCATCGCGGGTTGTGCAGC
B3: GS3-P4 (dsDNA)
DNA 1: CCACCGTCCCCCCTTCCCCCTCCAACCAGATCTGGGAGGAAGGGAGGGAGGGAGGGGAG
DNA 2: CTCCCCTCCCTCCCTCCCTTCCTCCCAGATCTGGTTGGAGGGGGAAGGGGGGACGGTGG
B4: GW8-P2 (dsDNA)
DNA 1: GTAACTGACTACCCCCAGTTCCTGCCCTCTTGGGCCTTGGTATTGTTGCTCCAAG
DNA 2: CTTGGAGCAACAATACCAAGGCCCAAGAGGGCAGGAACTGGGGGTAGTCAGTTAC
B5: GW8-P1 (dsDNA)
DNA 1: CTTATAGTCCAACAATTTGAGAGCAATTAATGGTCAAAAATTAAATGAAAAATAGAAATTC
DNA 2: GAATTTCTATTTTTCATTTAATTTTTGACCATTAATTGCTCTCAAATTGTTGGACTATAAG
B6: GW8-P3 (dsDNA)
DNA 1: CTACTTTCCTTATTCCACTAGAAATCATATATACCTTTCTCACTCTACATAATC
DNA 2: GATTATGTAGAGTGAGAAAGGTATATATGATTTCTAGTGGAATAAGGAAAGTAG
B7: GS3-P2 (dsDNA)
DNA 1: CTCTCCCTTCCATCATTACTTGCCCAAAAACGGCAATCCCCTCCCCTCCATCTCCATGTG
DNA 2: CACATGGAGATGGAGGGGAGGGGATTGCCGTTTTTGGGCAAGTAATGATGGAAGGGAGAG
B8: GS3-P3 (dsDNA)
DNA 1: GCCACCCTCCCTACGACGTAGCCAGATATGGGTGGAGAGGTAAGCGCCGCCGCCGCTGC
DNA 2: GCAGCGGCGGCGGCGCTTACCTCTCCACCCATATCTGGCTACGTCGTAGGGAGGGTGGC

Target: MBP-OsMADS47 (Oryza sativa (cv. Nipponbare, NIP?), UniProt Q5K4R0 1-250)
Test: EMSA; EMSA buffer not stated (performed as described previously, ref 61); unlabeled competitors at 10x, 100x, 1000x
Details: protein: recombinant; tags: MBP (N-terminal, pMAL); chain copies: 2; label: biotin 3'-end; blunt

MBP-OsMADS47, sequence (Q5K4R0 whole entry): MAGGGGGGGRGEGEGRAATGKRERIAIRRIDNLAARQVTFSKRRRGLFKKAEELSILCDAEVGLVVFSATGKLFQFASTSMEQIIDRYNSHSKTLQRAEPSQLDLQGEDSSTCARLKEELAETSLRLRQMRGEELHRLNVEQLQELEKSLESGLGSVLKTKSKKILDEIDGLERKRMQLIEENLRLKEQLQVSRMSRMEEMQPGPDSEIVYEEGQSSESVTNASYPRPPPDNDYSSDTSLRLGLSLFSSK

Binding result, binds:
B1
B2
B3
B4
B5
B6
B7
B8
